# Biological target: GLP-1 receptor on RIN-m5F rat insulinoma cells (Rat) (UniProt P32301)
# Test: cell-based or functional assay
row,"In vitro titer (%): cAMP EC50 in RIN-m5F cells, relative to exendin-4 [%]",Substance
1,2.6,Ser12 DA exendin-4(Lys27)-PEG-Fc
2,2,"DA GLP-1(Lys20, 28)-PEG-Fc"

# — US20100105877A1
